Test [1] addresses T1, CD3E on the surface of Jurkat-NFAT-Luc cells (UniProt P07766 23-207). Description: cell-based or functional assay.
The target in test [2] is T1, CD3E on the surface of Jurkat-NFAT-Luc …. The test can be described thus: cell-based or functional assay. This is another data set of the same source.
The target of a further test is T2, human GPRC5D (human, UniProt Q9NZD1 1-345).
T2 construct: whole, on cells; also called huGPRC5D; G protein-coupled receptor family C group 5 member D
T2 sequence (Q9NZD1 whole entry): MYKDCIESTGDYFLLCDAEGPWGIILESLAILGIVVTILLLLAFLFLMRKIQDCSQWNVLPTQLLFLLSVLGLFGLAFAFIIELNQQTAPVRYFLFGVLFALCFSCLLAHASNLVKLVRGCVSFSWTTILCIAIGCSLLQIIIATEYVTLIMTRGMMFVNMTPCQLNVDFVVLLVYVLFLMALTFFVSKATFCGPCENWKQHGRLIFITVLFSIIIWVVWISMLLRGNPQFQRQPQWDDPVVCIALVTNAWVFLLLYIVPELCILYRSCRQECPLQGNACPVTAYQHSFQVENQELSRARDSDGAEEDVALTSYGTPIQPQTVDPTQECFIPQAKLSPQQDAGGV
The test can be described thus: flow cytometry on huGPRC5D GS-CHO cells. The procedure:
The affinity of the anti-GPRC5D antibody was detected by flow cytometry. Antibodies at various concentrations were co-incubated with cells expressing human GPRC5D, including GS-CHO cells overexpressing human GPRC5D (huGPRC5D GS-CHO), multiple myeloma cells MM1.R, H929 and AMO-1, for 30 min. A fluorescently-labeled secondary antibody (APC-mouse anti-human IgG Fc antibody, Biolegend, Cat #409306) was then added, the cell fluorescence intensity was detected using a Live/Dead yellow dead cell stain (Thermo Fisher, Cat #L34967) by flow cytometry, a curve was fitted using GraphPad Prism 8.0, and the EC50 value was calculated to show the binding affinity of the antibody to human GPRC5D.
In the exemplary trispecific antibodies, the binding affinities of the antigen-binding sites from the humanized antibodies hz5E12.1.P1 and hz11B7.5 to GPRC5D were detected.

The next test deals with T3, Cyno CD3D&E-Bio (monkey (cyno), UniProt Q95LI5 22-117; Q95LI8 22-105, biotin-labeled (site not stated)).
T3 construct: Bought heterodimer antigen; also called monkey CD3D&E heterodimer antigen (ACRO Biosystems); monkey CD3E
T3 sequence (Q95LI5 22-117 limits assumed, chain 1 of 2): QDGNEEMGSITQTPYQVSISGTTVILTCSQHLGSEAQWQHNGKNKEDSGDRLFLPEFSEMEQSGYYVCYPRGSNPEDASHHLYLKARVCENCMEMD
T3 sequence (Q95LI8 22-105 limits assumed, chain 2 of 2): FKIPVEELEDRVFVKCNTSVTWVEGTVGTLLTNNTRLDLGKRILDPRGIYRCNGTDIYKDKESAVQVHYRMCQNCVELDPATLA
The test can be described thus: BLI (Octet Red96e), SA or AHC sensors, 1:1 fit. The protocol:
(§1) Sensors (Fortebio, Cat #18-5019) coupled to streptavidin protein (SA) or anti-human-Fc (AHC) were pre-wetted by immersion in 200 μL of SD buffer (1×PBS, 0.1% BSA, 0.05% tween-20). Exemplary antibodies and biotin-labeled or Fc-tagged BCMA and CD3D&E heterodimer antigens were diluted with SD buffer, respectively. 200 μL of SD buffer and diluted samples (100 nM) were taken and added to a 96-well black plate (Greiner, Cat #655209), respectively. The sensors and the samples were placed in Octet (Fortebio, Red96e). Data Acquisition 10.0 was executed and “New Kinetic Experiment” was selected. The sensors were arranged according to the positions of the samples, and the operation procedures and times were set as: Baseline 60 s, Loading 250 s, Baseline 100 s, Association 600 s and Dissociation 600 s. The experiment was conducted at a rotation speed of 1000 rpm and 30° C.
(§2) The results were analyzed in “Data Analysis 10.0” software, with the buffer reference channel being subtracted. 1:1 binding was selected to fit the data, and kₒₙ, koff, and KD values for the exemplary antibodies were calculated.
(§3) In experiments performed according to the above-mentioned assay, the affinities of the exemplary antibodies were detected using a human CD3D&E heterodimer antigen (ACRO Biosystems) and a monkey CD3D&E heterodimer antigen (ACRO Biosystems). The binding affinities of GPRC5D×CD3 bispecific antibodies hz5E12.1-P1/SP34.24 and hz5E12.1-P1/SP34.87 to human/monkey CD3D&E were also detected.
On the technique in general: Biolayer interferometry detects binding as a change in optical thickness at a sensor tip.

A further test addresses T4, Human CD3D&E-Bio (human, UniProt P07766 23-126; P04234 22-105, biotin-labeled (site not stated)).
T4 construct: Bought heterodimer antigen; also called human CD3D&E heterodimer antigen (ACRO Biosystems); human CD3E
Description: BLI (Octet Red96e), SA or AHC sensors, 1:1 fit. The procedure:
as §1, §2, §3

In a further test the target is T5, Cyno BCMA-Fc (monkey (cyno), UniProt A0A2K5UD97 1-53).
T5 construct: also called monkey BCMA antigen (ACRO Biosystems); not shown: Fc tag of the bought antigen
T5 sequence (A0A2K5UD97 entry or part of it): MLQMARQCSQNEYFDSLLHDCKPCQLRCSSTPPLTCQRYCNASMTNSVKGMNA
Description: BLI (Octet Red96e), SA or AHC sensors, 1:1 fit. The protocol: as §1, §2
(§4) In the experiments performed according to the above-mentioned assay, the exemplary antibodies were detected using a human BCMA antigen (ACRO Biosystems) and a monkey BCMA antigen (ACRO Biosystems). The detection results of the affinities to human BCMA are shown in Table 6; and the detection results of the affinities to monkey BCMA are shown in Table 7.

In a further test the target is T6, Human BCMA-Bio (human, UniProt Q02223 1-54, biotin-labeled).
T6 construct: Bought antigen; also called human BCMA antigen (ACRO Biosystems)
T6 sequence (looked up): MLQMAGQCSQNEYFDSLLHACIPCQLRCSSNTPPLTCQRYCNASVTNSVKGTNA
Description: BLI (Octet Red96e), SA or AHC sensors, 1:1 fit. The procedure:
as §1, §2, §4

We go through two molecules from patent US20250074996A1 (Innovent, published 2025).

T4 sequence (P07766 23-126 limits assumed, chain 1 of 2): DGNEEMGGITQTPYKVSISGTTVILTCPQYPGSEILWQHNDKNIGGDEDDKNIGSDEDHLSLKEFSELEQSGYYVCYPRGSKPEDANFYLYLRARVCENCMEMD
T4 sequence (P04234 22-105 limits assumed, chain 2 of 2): as the sequence (Q95LI8 22-105 limits assumed, chain 2 of 2) above, with V5I, K15N, V20I, T32S, N33D, N34I, A64T, N74S, L83V counted along it
T1 sequence (P07766 23-207): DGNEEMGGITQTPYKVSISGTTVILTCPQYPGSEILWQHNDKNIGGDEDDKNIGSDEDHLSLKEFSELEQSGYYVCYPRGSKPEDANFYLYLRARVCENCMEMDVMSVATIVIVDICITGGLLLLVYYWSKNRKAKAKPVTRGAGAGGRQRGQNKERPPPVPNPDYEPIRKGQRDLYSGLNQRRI

B1: TS-F2-4 (hz5E12.1.P1/SP34.24/38456) (antibody, human IgG1, kappa, lambda, L234A L235A)
heavy 1: not shown
light 1: DIVMTQSPDSLAVSLGERATINCRASESVDSYGITFMNWYQQKPGQPPKLLIYAASNQGSGVPDRFSGSGSGTDFTLTISSLQAEDVAVYYCQQSKEVPWTFGQGTKLEIKRTVAAPSVFIFPPSDEQLKSGTASVVCLLNNFYPREAKVQWKVDNALQSGNSQESVTEQDSKDSTYSLSSTLTLSKADYEKHKVYACEVTHQGLSSPVTKSFNRGEC
heavy 2: not shown
light 2: QAVVTQEPSLTVSPGGTVTLTCRSSTGAVTTSNYANWVQQKPGQAPRGLIGGTNKRAPGVPARFSGSLLGDKAALTLLGAQPEDEAEYYCALWYSNLWVFGQGTKLTVLGQPKAAPSVTLFPPSSEELQANKATLVCLISDFYPGAVTVAWKADSSPVKAGVETTTPSKQSNNKYAASSYLSLTPEQWKSHRSYSCQVTHEGSTVEKTVAPTECS
As a reminder, the EC50 is the concentration needed to bring the measured effect to its halfway point. One may read the Kd as a measure of binding affinity in units of concentration. One may read the koff as a measure of how fast the partners let go of each other. A word on the kon: it is the second-order rate constant of association. As for B1, in test [1], the “EC50 of Jurkat-NFAT-Luc luciferase activation; tumor cells ARD” value worked out at 0.00238 nM and the “EC50 of Jurkat-NFAT-Luc luciferase activation; tumor cells MM.1S” value was 0.00179 nM. In addition, in test [2], the “EC50 of Jurkat-NFAT-Luc luciferase activation; tumor cells 8226” value worked out at 0.00788 nM, the “EC50 of Jurkat-NFAT-Luc luciferase activation; tumor cells H929” value was determined as 0.00738 nM, the “EC50 of Jurkat-NFAT-Luc luciferase activation; tumor cells L363” value stood at 0.00629 nM and the “EC50 of Jurkat-NFAT-Luc luciferase activation; tumor cells U266” value came to 0.0503 nM. Further, in the test with human GPRC5D, a half-maximal response (EC50) required 40 nM. In the test with Cyno CD3D&E-Bio, the affinity, expressed as Kd, was 22.7 nM; the koff came to 0.00301 s⁻¹; the on-rate (kon) was 132000 M⁻¹ s⁻¹. In the test with Human CD3D&E-Bio, this molecule yielded a Kd of 22.1 nM, an off-rate constant (koff) of 0.00326 s⁻¹ and a kon of 147000 M⁻¹ s⁻¹. In the test with Cyno BCMA-Fc, this molecule came in with a dissociation constant Kd of 0.204 nM, a koff of 0.0002 s⁻¹ and a kon of 980000 M⁻¹ s⁻¹. In the test with Human BCMA-Bio, this molecule came in with a Kd of 2.27 nM, a koff of 0.000297 s⁻¹ and an on-rate (kon) of 131000 M⁻¹ s⁻¹.

B2: TS-F2-5 (hz5E12.1.P1/SP34.87/38456) (antibody, human IgG1, kappa, lambda, L234A L235A)
heavy 1: not shown
light 1: B1 light 1
heavy 2: not shown
light 2: B1 light 2
On to B2, for which, in test [1], the “EC50 of Jurkat-NFAT-Luc luciferase activation; tumor cells ARD” value was 0.00696 nM and the “EC50 of Jurkat-NFAT-Luc luciferase activation; tumor cells MM.1S” value stood at 0.00734 nM. In test [2], the “EC50 of Jurkat-NFAT-Luc luciferase activation; tumor cells 8226” value amounted to 0.0211 nM, the “EC50 of Jurkat-NFAT-Luc luciferase activation; tumor cells H929” value was determined as 0.0178 nM, the “EC50 of Jurkat-NFAT-Luc luciferase activation; tumor cells L363” value was 0.0213 nM and the “EC50 of Jurkat-NFAT-Luc luciferase activation; tumor cells U266” value turned out to be 0.858 nM. In the test with human GPRC5D, this molecule displayed a half-maximal effective concentration (EC50) of 45 nM. In the test with Cyno CD3D&E-Bio, this molecule registered a dissociation constant Kd of 220 nM, a koff of 0.0173 s⁻¹ and an on-rate (kon) of 78600 M⁻¹ s⁻¹. Besides, in the test with Human CD3D&E-Bio, the dissociation constant (Kd) is 243 nM, the koff worked out at 0.0188 s⁻¹ and the kon came out at 77500 M⁻¹ s⁻¹. In the test with Cyno BCMA-Fc, binding was characterised by a dissociation constant (Kd) of 0.21 nM, the off-rate constant (koff) worked out at 0.0002 s⁻¹ and the kon stood at 950000 M⁻¹ s⁻¹. In the test with Human BCMA-Bio, the Kd worked out at 2.1 nM, the dissociation rate constant (koff) came to 0.000279 s⁻¹ and the kon was 133000 M⁻¹ s⁻¹.
